Measurements published in patent publication US20110236427A1 (MEDIZINISCHE UNIVERSITAT INNSBRUCK, published 2011).

Tests used:
[1] = target: T1, endogenous PKCalpha from Jurkat T cell lysates (human, UniProt P17252 2-672); test: GST pull down from Jurkat T cell lysates, immunoblot
T1 construct: Detected by immunoblot with an anti-PKCalpha antibody (UBI) after the GST pull down; also called PKCα
Experimental: (§1) GST pull down assay: 1×10⁷ Jurkat T cells were lysed in 1 ml lysis buffer (25 mM MES pH6.5, 5 mM NaF, 1 mM Na₃VO₄, 2 mM EDTA, 150 mM NaCl, 0.5% TritonX-100, 50 μg/ml aprotinin and leupeptin). Lysates were precleared for 30 min at 4° C. Thereafter incubation with purified recombinant GST-NR2F6 fusion proteins for 3 h at 4° C., 5× washing in lysis buffer, SDS-PAGE under reducing conditions on Bis/Tris-buffered gels (Novex, San Diego, Calif.) was performed. Proteins were transferred onto a polyvinyl-difluoridon (PVDF) membrane (Millipore, Bedford, Mass.) by semi-dry blotting (90 mA, 80 min, 4° C.). […] Peroxidase-conjugated antibodies (Pierce, Rockford, Ill.) served as secondary reagent (1:5,000). For antigen detection enhanced chemiluminescence was used (Super Signal, Pierce, Rockford, Ill.).

[2] = target: T2, endogenous PKCtheta from Jurkat T cell lysates (human, UniProt Q04759 1-706); test: as above
T2 construct: Detected by immunoblot with an anti-PKCtheta antibody (Cell Signalling) after the GST pull down
Experimental: as §1

T2 sequence (Q04759 whole entry): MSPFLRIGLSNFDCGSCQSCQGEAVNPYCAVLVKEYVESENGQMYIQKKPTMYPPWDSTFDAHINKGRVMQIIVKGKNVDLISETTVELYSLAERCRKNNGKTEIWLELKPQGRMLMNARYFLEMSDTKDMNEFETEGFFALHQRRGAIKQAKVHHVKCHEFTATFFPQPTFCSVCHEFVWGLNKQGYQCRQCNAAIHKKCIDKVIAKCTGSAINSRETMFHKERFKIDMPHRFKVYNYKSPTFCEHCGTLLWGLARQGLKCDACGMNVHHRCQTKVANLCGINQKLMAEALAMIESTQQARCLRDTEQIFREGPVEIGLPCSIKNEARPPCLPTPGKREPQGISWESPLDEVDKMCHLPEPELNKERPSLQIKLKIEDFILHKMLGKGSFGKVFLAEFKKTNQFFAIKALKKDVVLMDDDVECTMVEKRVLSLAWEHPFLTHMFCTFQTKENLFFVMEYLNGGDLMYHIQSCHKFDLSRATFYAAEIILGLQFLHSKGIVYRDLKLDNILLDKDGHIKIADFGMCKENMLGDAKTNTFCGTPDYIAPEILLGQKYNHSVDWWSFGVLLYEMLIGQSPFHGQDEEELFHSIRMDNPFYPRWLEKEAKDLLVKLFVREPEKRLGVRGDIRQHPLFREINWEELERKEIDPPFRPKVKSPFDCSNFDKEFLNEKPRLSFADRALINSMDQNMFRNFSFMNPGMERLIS

binding result [1]: binds
binding result [2]: binds
B1: GST-NR2F6 fusion protein, full-length, wild-type (other)
chain: MAMVTGGWGGPGGDTNGVDKAGGYPRAAEDDSASPPGAASDAEPGDEERPGLQVDCVVCGDKSSGKHYGVFTCEGCKSFFKRSIRRNLSYTCRSNRDCQIDQHHRNQCQYCRLKKCFRVGMRKEAVQRGRIPHSLPGAVAASSGSPPGSALAAVASGGDLFPGQPVSELIAQLLRAEPYPAAAGRFGAGGGAAGAVLGIDNVCELAARLLFSTVEWARHAPFFPELPVADQVALLRLSWSELFVLNAAQAALPLHTAPLLAAAGLHAAPMAAERAVAFMDQVRAFQEQVDKLGRLQVDSAEYGCLKAIALFTPDACGLSDPAHVESLQEKAQVALTEYVRAQYPSQPQRFGRLLLRLPALRAVPASLISQLFFMRLVGKTPIETLIRDMLLSGSTFNWPYGSGQ
notes: Purified recombinant fusion protein, used as bait in the GST pull down from Jurkat T cell lysates and as substrate in the in vitro kinase assay; also called recombinant NR2F6; purified recombinant GST-NR2F6; not shown: GST tag; N-terminal position inferred from the name GST-NR2F6
